Test results from patent CN115181181A (NANJING RONGJIEKANG BIOTECHNOLOGY CO LTD, dated 2022).

B1: 单域抗体1E1 (原核粗提VHH) (VHH)
VHH: ESGGGSVEAGGSLRLSCARPGYDYDTDYMGWFRQAPGKEREGVATIYTQKGFTWYADSVKGRFTISQDNAKNTVYLQMNSLKPEDTAMYYCAAADYGAATSKLNPSKYNAWGQGTQVTVSS
notes: also called VHH3; not shown: tags from the pMECS vector (detected with anti-HA antibody)
B2: 单域抗体4A4 (原核粗提VHH) (VHH)
VHH: ESGGGSVQAGETLRLSCTASGFTFDDSDMGWYRQAPGNECELVSIMRSDRSTYYAASVKGRFTISQDNAKNTVYLQMNSLKPEDTAVYHCAAAGAISIAAACPTHWWGQGTQVTVSS
notes: also called VHH9; not shown: tags from the pMECS vector (detected with anti-HA antibody)
B3: 单域抗体1A5 (原核粗提VHH) (VHH)
VHH: ESGGGSVQAGGSLRLSCAASGYTYSSNCMGWFRQAPGKEREGVAAIDTGGGHTYYADSVVKGRFTISQDNAKNTVYLQMNSLKPEDTAMYYCAADSGYCYAEEPAPDRFGYWGQGTQVTVSS
notes: also called VHH1; not shown: tags from the pMECS vector (detected with anti-HA antibody)
B4: 单域抗体4H7 (原核粗提VHH) (VHH)
VHH: ESGGGSVQAGGSLRLSCAASESTYRRTYMAWFRQAPGKERDGVAVIYTGNGVTWYADSVEGRFTISQDNAKNTVYLQMNSLKPEDTAMYYCAADSMRGRNVLHSGFYHYWGQGTQVTVSS
notes: also called VHH11; not shown: tags from the pMECS vector (detected with anti-HA antibody)
B5: 单域抗体2H3 (原核粗提VHH) (VHH)
VHH: ESGGGSVQAGGSLRLSCAASGHTSSSNRMGWFRQAPGKEPEGVAVISTGGGRTLYADSVKGRFTISQDNAKNTLGLQMNSLKPEDTAMYYCAAAASSIAISRFWTWPPKEFFDYWGQGTQVTVSS
notes: also called VHH5; not shown: tags from the pMECS vector (detected with anti-HA antibody)
B6: 单域抗体3F5 (原核粗提VHH) (VHH)
VHH: ESGGGSVQAGGSLRLSCAASGYTYSRNCVGWFRQAPGKEREGVAAIDSGGGYSYYADSVKGRFTISQDNAKNTVFLQMNSLKPEDTAVYYCAAEPASCFPHVPTEVDFGYWGRGTQVTVSS
notes: also called VHH7; not shown: tags from the pMECS vector (detected with anti-HA antibody)
B7: 单域抗体3G3 (原核粗提VHH) (VHH)
VHH: ESGGGSVQAGGSLRLSCVGSRYTSITGCMGWFRQAPGKEREGVAAIDTGGGHTYYADSVKGRFTIAQDNAKNTVYLQVNSLKPEDTGMYYCAAEASPCFPHNPQVADFGYWGQGTQVTVSS
notes: also called VHH8; not shown: tags from the pMECS vector (detected with anti-HA antibody)
B8: 单域抗体1B5 (原核粗提VHH) (VHH)
VHH: ESGGGSVQAGGSLRLSCAASGYTYSSNCMGWFRQAPGKEREGVAAIDTGGGYTYYADSVEGRFTISQDKAKNTVYLQMNSLKPEDTAMYYCAADTGRCFPHVPYEVDFGYWGQGTQVTVSS
notes: also called VHH2; not shown: tags from the pMECS vector (detected with anti-HA antibody)
B9: 单域抗体1H1 (原核粗提VHH) (VHH)
VHH: ESGGGSVQAGGSLRLSCAASGYTSRRNCMGWFRQAPGKEREGVAAINTAGGHTYYADSVEGRFTISQDNARNTVYLQMNSLKPEDTGMYYCAAETGSYCYAHVPESADFGYWGQGTQVTVSS
notes: also called VHH4; not shown: tags from the pMECS vector (detected with anti-HA antibody)
B10: 单域抗体3E11 (原核粗提VHH) (VHH)
VHH: ESGGGSVQAGGSLRLSCVASGYTYSRRCMGWFRQAPGKEREGVAAIYSGNGVTYYPDSVKGRFTISQDNAKNTVYLQMNSLKPEDTAMYYCAAQGDYCYAHAPEPADFGYWGQGTQVTVSS
notes: also called VHH6; not shown: tags from the pMECS vector (detected with anti-HA antibody)
B11: 单域抗体4D9 (原核粗提VHH) (VHH)
VHH: ESGGGSVQAGGSLRLSCAASGYPYRRNCMGWFRQAPGKEREGVAAIDSAGTTTYADSVKGRFTISKDDAKNTLYLQMNSLKPEDTAMYYCALNAPTWECRAGGAPAFAYSGQGTQVTVSS
notes: also called VHH10; not shown: tags from the pMECS vector (detected with anti-HA antibody)

Target: T1, 人源重组CD25蛋白 (human IL-2RA) (human, UniProt P01589 22-240)
T1 construct: extracellular domain; also called CD25重组蛋白; 人源重组胞外结构域蛋白
T1 sequence (looked up): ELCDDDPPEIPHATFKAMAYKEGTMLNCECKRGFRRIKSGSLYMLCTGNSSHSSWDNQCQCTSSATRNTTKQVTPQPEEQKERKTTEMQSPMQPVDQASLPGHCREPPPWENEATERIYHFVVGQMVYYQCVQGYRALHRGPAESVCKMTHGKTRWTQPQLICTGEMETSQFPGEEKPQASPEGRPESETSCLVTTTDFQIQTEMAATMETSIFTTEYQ
Experiment: screening ELISA: crude VHH extract on coated CD25, anti-HA-HRP detection; positive if OD450 is over 5 times the control

| Binder | binding result |
| --- | --- |
| B1 | binds |
| B2 | binds |
| B3 | binds |
| B4 | binds |
| B5 | binds |
| B6 | binds |
| B7 | binds |
| B8 | binds |
| B9 | binds |
| B10 | binds |
| B11 | binds |
